This assay addresses T1, N-terminally truncated eIF5B (residues 396-1002) with the point mutation T439A (S. cerevisiae, UniProt P39730 396-1002, T439A).
T1 sequence (looked up): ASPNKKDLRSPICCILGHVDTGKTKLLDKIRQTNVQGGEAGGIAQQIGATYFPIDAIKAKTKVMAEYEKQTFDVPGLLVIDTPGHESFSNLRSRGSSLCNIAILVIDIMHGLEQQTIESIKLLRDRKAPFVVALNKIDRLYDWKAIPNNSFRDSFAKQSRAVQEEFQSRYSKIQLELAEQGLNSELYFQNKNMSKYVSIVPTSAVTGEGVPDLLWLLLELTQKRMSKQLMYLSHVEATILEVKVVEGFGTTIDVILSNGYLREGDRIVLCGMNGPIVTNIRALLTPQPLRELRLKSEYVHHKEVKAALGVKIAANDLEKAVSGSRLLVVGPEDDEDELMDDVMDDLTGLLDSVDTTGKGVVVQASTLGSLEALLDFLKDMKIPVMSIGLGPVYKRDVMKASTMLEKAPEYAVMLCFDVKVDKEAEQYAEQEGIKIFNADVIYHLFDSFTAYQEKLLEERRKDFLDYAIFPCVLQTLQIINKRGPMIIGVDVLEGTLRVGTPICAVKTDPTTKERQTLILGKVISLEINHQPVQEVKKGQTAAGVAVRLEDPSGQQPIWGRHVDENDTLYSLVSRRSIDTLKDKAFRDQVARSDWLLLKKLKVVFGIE
Kind of assay: cryo-EM structure.

B1: ribosomal protein S23 (the yeast orthologue of bacterial protein S12) (natural protein, UniProt P0CX29 1-145, looked up)
chain: MGKGKPRGLNSARKLRVHRRNNRWAENNYKKRLLGTAFKSSPFGGSSHAKGIVLEKLGIESKQPNSAIRKCVRVQLIKNGKKVTAFVPNDGCLNFVDENDEVLLAGFGRKGKAKGDIPGVRFKVVKVSGVSLLALWKEKKEKPRS
Consider B1, for which the binding result is “binds”.
